Results on 1 substance are retold here after paper PMC9952701.

The target in the test is insulin-like growth factor receptor type 1 (IGF1R) (mouse (endogenous in HEI-OC1)) (UniProt Q60751).
UniProt Q60751, sequence (Q60751 31-1373): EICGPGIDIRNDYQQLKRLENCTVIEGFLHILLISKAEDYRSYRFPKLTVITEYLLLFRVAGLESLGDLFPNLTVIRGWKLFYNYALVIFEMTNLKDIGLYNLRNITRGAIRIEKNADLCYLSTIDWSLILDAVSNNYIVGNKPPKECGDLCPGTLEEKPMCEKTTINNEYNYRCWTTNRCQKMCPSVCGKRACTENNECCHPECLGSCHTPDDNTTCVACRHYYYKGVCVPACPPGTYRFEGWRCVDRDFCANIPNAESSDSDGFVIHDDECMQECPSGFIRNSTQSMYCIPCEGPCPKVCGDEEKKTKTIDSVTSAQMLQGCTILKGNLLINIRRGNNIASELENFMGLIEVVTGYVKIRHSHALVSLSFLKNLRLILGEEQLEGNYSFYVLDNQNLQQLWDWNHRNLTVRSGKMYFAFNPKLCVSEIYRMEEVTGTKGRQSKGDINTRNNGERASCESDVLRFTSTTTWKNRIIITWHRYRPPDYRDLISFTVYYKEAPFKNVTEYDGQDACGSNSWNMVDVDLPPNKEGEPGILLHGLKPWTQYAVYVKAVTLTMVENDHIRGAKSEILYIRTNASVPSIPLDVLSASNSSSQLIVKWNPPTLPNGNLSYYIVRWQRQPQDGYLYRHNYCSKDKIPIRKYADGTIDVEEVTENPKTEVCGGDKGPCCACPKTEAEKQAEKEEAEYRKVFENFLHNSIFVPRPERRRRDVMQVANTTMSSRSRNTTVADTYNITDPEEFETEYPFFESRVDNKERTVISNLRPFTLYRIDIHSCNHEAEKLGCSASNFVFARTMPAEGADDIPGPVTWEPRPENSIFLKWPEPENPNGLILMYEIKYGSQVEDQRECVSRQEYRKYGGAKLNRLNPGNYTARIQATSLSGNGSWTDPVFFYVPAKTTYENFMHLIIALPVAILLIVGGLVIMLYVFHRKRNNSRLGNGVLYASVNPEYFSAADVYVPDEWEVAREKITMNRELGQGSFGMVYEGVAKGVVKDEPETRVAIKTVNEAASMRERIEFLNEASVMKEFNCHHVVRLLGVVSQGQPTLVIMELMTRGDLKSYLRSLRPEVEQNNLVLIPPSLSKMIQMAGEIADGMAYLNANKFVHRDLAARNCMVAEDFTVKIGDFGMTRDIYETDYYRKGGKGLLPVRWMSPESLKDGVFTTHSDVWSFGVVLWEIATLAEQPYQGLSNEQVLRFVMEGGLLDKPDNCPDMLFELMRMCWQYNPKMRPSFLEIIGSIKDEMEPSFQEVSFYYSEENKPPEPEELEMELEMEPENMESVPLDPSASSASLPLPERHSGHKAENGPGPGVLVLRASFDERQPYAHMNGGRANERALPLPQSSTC

The substance “human recombinant IGF-1 (insulin-like growth factor 1) (from UniProt P05019 49-118) (ligand)” gave a p-IGF1Rβ (Tyr1135) level by Western blot in HEI-OC1 progenitor cells treated with IGF-1 (10 nM), sustained for 30 min, versus untreated control of 11 fold and a p-IGF1Rβ (Tyr1135) level by Western blot in differentiated HEI-OC1 cells treated with IGF-1 (10 nM) for 5 min, versus untreated control of 3.5 fold.
